Data taken from patent publication US12522656B2, “Anti-G-protein alpha antibody” (CISBIO BIOASSAYS, priority 2020, dated 2026).

What was measured:
[1] = target: Delta Opioid GPCR (Homo sapiens, UniProt P41143); experiment: Activation assay format 2A on Delta Opioid GPCR, agonist/antagonist modulation of TR-FRET signal; conditions: fixed SNC162 200 nM; increasing concentration of antagonist; GTPgN-octyl-C2 + DSV36S-d2; FIG. 16B
[2] = target: T1, DOR receptors (Homo sapiens, UniProt P41143); experiment: Activation of DOR in HEK293 membranes read by TR-FRET (fluorescent GTP analog + labeled antibody); type: biochemical; conditions: SNC162 10 μM; read as increase of FRET signal with DSV36S-d2 / DSV38S-d2
T1 construct: expressed in transfected cells; host or cells: HEK293 membranes
T1 sequence (P41143 whole entry): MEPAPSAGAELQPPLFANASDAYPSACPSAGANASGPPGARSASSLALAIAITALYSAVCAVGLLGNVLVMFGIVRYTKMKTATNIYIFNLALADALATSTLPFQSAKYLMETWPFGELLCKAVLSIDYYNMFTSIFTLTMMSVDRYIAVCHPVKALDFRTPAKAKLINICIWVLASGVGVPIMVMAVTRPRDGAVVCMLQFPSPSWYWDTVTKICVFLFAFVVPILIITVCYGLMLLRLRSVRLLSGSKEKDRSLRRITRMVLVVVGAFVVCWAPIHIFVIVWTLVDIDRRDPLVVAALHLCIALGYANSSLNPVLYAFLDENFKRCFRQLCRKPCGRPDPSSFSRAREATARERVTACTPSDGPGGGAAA
Experimental: (§1) HEK293 membranes expressing the DOR receptor were prepared 4× for a final amount in the wells of 10 μg. The antibodies DSV36S-d2, DSV38S-d2, SC13533-d2 and anti-FLAG-d2 were prepared 4× for a final concentration in the wells of 10 nM.
(§2) The reagents were distributed in the 384-well plates as follows: • 1) 5 μl of DOR membranes was put in each well, • 2) 5 μl of GTPgN-octyl-C2 labeled with europium cryptate or GTPgO-linker-Cy5 was added to each well, • 3) 5 μl of antibody DSV36S or DSV38S or SC13533 or DSV 26S or DSV3S or DSV 39S labeled with d2 or DSV 36S or SC13533 labeled with terbium cryptate was added to each well, • 4) 5 μl of buffer or SNC 162 or GTPgS was added to each well.
(§3) The plates were incubated for 20 h at room temperature before reading the HTRF signal.

[3] = target: Gαo (Homo sapiens, UniProt P09471); experiment: HTRF selectivity assay, G-protein α overexpressed in HEK293 cells; type: binding; conditions: antibody-d2 10 nM, 20 h
Gαo, sequence (P09471 whole entry): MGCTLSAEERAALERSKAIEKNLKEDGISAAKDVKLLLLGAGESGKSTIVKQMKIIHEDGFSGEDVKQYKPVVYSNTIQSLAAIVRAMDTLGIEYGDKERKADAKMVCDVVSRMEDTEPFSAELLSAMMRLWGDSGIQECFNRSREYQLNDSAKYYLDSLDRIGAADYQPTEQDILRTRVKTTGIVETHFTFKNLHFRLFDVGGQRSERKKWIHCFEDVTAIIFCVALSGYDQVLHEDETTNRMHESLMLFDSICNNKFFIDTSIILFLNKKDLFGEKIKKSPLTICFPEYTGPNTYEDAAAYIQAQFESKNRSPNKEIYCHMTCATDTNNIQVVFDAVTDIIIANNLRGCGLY
Experimental: (§4) A solution containing 1 million HEK cells/ml was prepared in OptiMEM medium. Mixtures of plasmids/Lipofectamine containing 150 ng/well of plasmids and 0.375 μl of lipofectamine were prepared in OptiMEM medium 30 minutes before adding them to the 96-well plate with black-bottomed wells.
(§5) Distribution of the reagents in each well of the black microplate suitable for cell culture: • 1) 50 μl per well of polyornithine was incubated for 30 minutes at room temperature and then the solution was withdrawn from each well by aspiration. • 2) 50 μl of the preparation of HEK293 (cell density of 50000 cells per well) was added to each well • 3) 50 μl of the mixture of plasmids coding for a G-protein+lipofectamine was added to each well.
(§6) The microplates were incubated for 24 h at 37° C. and 5% CO2 (regulated stove).
(§7) The antibodies DSV36S-d2, DSV38S-d2 and SC13533-d2 were prepared 4× for a final concentration in the wells of 10 nM.
(§8) The reagents were distributed on the 384-well plates as follows: • 1) The OptiMEM culture medium was aspirated, • 2) 25 μl of buffer or GDP or GTP was added to each well, • 3) 25 μl of buffer was added to each well, • 4) 25 μl of antibody DSV36S-d2 or DSV38S-d2 or SC13533-d2 or anti-FLAG-d2 was added to each well, • 5) 25 μl of anti Twin-Strep-tag-Lumi4 Tb antibody was added to each well.
(§9) The microplates were incubated for 20 h at room temperature before reading the HTRF signal.

[4] = target: Gαi2 (Homo sapiens, UniProt P04899); experiment: as above; type: binding; conditions: antibody-d2 10 nM, 20 h
Gαi2, sequence (P04899 whole entry): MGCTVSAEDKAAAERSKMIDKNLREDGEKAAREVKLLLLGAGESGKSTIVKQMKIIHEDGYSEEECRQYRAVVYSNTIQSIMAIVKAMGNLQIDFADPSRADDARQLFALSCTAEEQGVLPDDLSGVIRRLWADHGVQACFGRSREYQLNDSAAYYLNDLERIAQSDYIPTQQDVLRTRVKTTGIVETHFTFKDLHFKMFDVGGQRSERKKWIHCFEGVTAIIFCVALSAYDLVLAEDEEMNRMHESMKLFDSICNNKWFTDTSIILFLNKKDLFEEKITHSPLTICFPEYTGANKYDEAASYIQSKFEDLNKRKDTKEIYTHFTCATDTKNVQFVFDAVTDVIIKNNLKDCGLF
Experimental: as §4, §5, §6, §7, §8, §9

[5] = target: Gαs (Homo sapiens, UniProt P63092); experiment: as above; type: binding; conditions: antibody-d2 10 nM, 20 h
Gαs, sequence (P63092 whole entry): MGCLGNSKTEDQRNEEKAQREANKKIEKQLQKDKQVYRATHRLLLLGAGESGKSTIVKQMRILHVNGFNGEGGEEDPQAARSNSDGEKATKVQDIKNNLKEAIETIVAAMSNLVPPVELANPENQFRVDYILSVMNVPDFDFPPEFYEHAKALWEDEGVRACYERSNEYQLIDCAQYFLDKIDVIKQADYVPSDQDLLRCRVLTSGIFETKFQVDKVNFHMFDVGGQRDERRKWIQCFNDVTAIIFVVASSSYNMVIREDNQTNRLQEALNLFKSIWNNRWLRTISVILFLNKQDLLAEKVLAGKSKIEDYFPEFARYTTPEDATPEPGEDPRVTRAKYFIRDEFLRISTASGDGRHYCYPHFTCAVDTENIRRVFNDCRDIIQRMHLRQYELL
Experimental: as §4, §5, §6, §7, §8, §9

[6] = target: T2, Gα13 (Homo sapiens, UniProt Q14344); experiment: as above; type: binding; conditions: antibody-d2 10 nM, 20 h
T2 sequence (Q14344 1-377): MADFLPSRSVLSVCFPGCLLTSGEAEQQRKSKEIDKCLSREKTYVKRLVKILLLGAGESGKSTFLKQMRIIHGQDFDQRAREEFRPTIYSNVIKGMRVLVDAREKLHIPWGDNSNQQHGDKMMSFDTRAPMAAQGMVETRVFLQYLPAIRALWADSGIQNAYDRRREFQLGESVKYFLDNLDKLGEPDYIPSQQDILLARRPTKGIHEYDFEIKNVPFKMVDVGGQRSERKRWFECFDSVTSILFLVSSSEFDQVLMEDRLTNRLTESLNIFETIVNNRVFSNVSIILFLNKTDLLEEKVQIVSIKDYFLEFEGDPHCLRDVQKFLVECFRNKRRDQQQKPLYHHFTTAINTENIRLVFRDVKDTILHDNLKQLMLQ
Experimental: as §4, §5, §6, §7, §8, §9

[7] = target: T3, Gαq (Homo sapiens, UniProt P50148); experiment: as above; type: binding; conditions: antibody-d2 10 nM, 20 h
T3 sequence (P50148 1-359): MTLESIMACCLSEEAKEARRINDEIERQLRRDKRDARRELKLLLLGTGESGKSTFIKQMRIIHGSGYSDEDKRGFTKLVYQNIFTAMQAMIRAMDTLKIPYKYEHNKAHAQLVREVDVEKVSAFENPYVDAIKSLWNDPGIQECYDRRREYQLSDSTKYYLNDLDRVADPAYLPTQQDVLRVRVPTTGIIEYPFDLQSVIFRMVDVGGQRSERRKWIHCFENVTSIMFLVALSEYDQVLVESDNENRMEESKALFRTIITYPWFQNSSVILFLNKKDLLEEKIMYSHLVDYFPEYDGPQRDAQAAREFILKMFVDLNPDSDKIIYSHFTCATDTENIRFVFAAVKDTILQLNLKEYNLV
Experimental: as §4, §5, §6, §7, §8, §9

[8] = target: T4, Gαi3 (Homo sapiens, UniProt P08754); experiment: as above; type: binding; conditions: antibody-d2 10 nM, 20 h
T4 construct: host or cells: HEK293
T4 sequence (P08754 whole entry): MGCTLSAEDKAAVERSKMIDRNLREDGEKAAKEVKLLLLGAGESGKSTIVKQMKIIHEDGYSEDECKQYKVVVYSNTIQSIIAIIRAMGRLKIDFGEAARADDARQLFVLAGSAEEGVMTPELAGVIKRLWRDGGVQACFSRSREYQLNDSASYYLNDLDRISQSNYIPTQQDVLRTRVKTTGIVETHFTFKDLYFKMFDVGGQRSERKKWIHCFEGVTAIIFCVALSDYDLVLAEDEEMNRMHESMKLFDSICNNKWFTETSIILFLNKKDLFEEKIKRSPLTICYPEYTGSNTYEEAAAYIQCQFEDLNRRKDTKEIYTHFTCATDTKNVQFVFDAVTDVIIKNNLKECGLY
Experimental: as §4, §5, §6, §7, §8, §9

[9] = target: T5, Gαi1 (Homo sapiens, UniProt P63096); experiment: as above; type: binding; conditions: antibody-d2 10 nM, 20 h
T5 sequence (P63096 whole entry): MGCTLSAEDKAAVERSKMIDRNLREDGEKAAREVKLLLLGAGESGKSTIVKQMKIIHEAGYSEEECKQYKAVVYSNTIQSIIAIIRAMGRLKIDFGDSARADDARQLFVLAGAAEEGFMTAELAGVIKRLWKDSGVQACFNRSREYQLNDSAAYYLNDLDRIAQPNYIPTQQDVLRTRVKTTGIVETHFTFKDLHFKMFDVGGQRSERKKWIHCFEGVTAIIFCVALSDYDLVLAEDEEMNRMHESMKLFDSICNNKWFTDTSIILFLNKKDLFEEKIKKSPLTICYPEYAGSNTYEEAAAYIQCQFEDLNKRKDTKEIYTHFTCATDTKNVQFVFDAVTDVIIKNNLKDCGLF
Experimental: as §4, §5, §6, §7, §8, §9

[10] = target: T6, Gαz (Homo sapiens, UniProt P19086); experiment: as above; type: binding; conditions: antibody-d2 10 nM, 20 h
T6 construct: host or cells: HEK293
T6 sequence (P19086 whole entry): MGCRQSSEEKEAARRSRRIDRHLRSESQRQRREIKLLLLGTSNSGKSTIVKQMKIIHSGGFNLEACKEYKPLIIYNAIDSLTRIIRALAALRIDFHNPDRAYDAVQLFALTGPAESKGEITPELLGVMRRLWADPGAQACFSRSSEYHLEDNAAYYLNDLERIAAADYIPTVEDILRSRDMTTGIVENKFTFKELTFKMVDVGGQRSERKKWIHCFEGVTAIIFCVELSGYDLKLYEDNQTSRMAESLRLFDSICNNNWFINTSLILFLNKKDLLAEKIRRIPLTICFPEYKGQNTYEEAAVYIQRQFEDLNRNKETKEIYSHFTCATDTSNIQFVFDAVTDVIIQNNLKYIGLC
Experimental: as §4, §5, §6, §7, §8, §9

[11] = target: T7, Gα12 (Homo sapiens, UniProt Q03113); experiment: as above; type: binding; conditions: antibody-d2 10 nM, 20 h
T7 construct: host or cells: HEK293
T7 sequence (Q03113 1-381): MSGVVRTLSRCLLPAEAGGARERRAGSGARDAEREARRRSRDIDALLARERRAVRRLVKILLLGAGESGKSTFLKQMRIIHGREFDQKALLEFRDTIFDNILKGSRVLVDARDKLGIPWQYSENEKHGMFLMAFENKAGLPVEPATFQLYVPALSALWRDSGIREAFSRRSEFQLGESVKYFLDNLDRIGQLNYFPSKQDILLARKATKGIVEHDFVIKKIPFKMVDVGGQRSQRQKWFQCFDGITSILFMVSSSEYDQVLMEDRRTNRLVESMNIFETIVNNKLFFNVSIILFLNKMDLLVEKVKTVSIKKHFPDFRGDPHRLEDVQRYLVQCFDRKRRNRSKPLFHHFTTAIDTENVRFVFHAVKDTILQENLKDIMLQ
Experimental: as §4, §5, §6, §7, §8, §9

[12] = target: T5, Gαi1; experiment: HTRF competition: unlabeled antibodies versus binding of DSV36S-d2 on G-protein αi1; conditions: unlabeled antibody 0.001-1 μM; DSV36S-d2 10 nM; GTPgS 100 μM
Experimental: (§10) These two reagents were prepared in one and the same solution and were preincubated for 30 minutes at room temperature before being distributed in the wells. The cold antibodies DSV36S, DSV38S, DSV26S, DSV3S, and DSV39S were prepared 4× for final concentrations in the wells between 0.001 and 1 μM. The antibody DSV36S-d2 was prepared 4× for a final concentration of 10 nM.
(§11) The reagents were distributed in the 384-well plates as follows: • 1) 10 μl of the preincubated mixture of G-protein αi1+GTPgS was put in each well, • 2) 5 μl of the unlabeled antibodies DSV36S, DSV38S, DSV26S, DSV3S, and DSV39S was added to each well, • 3) The plates were incubated for 30 minutes at room temperature, • 4) 5 μl of the anti Twin-Strep-tag-Lumi4 Tb antibody and of the antibody DSV36S-d2 were added to each well.
(§12) The plates were incubated for 1 h at room temperature before reading the HTRF signal.

[13] = tested on: G-proteins α; experiment: TR-FRET signal of labeled antibody combined with fluorescent GTP analog on HEK293 membranes expressing the DOR receptor; type: binding; conditions: for FRET signal with GTPgN-octyl-C2-Europium cryptate: antibody labeled with d2 10 nM, GTP analog 6 nM, FIG. 11
Experimental: as §1, §2, §3

[14] = target: T5, Gαi1; experiment: Determination of affinity (Kd) of d2-labeled antibodies for G-protein αi1 by HTRF/FRET; type: binding
Experimental: These two reagents were prepared in one and the same solution and were preincubated for 30 minutes at room temperature before being distributed in the wells. The antibodies DSV36S-d2, DSV38S-d2 and SC13533-d2 were prepared 4× for final concentrations in the wells between 0.01 and 10 nM depending on the antibodies.
The reagents were distributed in the 384-well plates as follows: • 1) 10 μl of the preincubation mixture of G-protein αi1+buffer only or GTPgS or GDP was put in each well, • 2) 5 μl of the antibody DSV36S or DSV38S or SC13533 labeled with d2 was added to each well, • 3) 5 μl of the anti Twin-Strep-tag-Lumi4 Tb antibody was added to each well.
The plates were incubated for 24 h at room temperature before reading the HTRF signal.
Moreover, the antibody titration curves obtained make it possible to calculate the affinity (Kd) of these different antibodies for the G-protein αi1. This was carried out using the GraphPad Prism software by applying a “one site specific binding” model to the HTRF data.

[15] = target: T5, Gαi1; experiment: HTRF competition: unlabeled antibodies versus binding of SC13533-d2 on G-protein αi1; conditions: unlabeled antibody 0.01-100 nM; SC13533-d2 10 nM; GTPgS 10 μM
Experimental: as §10, with “DSV38S” for “DSV38S, DSV26S, DSV3S,”, “SC13533” for “DSV39S”, “0.01” for “0.001”, “100 nM.” for “1 μM.”, “SC 13533-d2” for “DSV36S-d2”
as §11, with “antibody DSV36S or DSV38S or SC56536 or AM05302PU-N or SC13533” for “antibodies DSV36S, DSV38S, DSV26S, DSV3S, and DSV39S”, “SC13533-d2” for “DSV36S-d2”
as §12

Delta Opioid GPCR, sequence (P41143 whole entry): as the sequence (P41143 whole entry) above

## Oc1ccc2c3c1O[C@H]1c4[nH]c5ccccc5c4C[C@@]4(O)[C@@H](C2)N(CC2CC2)CC[C@]314 [Naltrindole]
[1]
  effect on activation by SNC162 (TR-FRET signal, HTRF ratio): inhibited

## C=CCN1C[C@H](C)N([C@@H](c2ccccc2)c2ccc(C(=O)N(CC)CC)cc2)C[C@H]1C [SNC162]
[2]
  activation of the DOR receptors overexpressed in the membranes: caused activation of the DOR receptors

B1: DSV36S: anti-G-protein alpha antibody; VH consists of SEQ ID NO: 14, VL of SEQ ID NO: 15; generated by Cisbio Bioassays (antibody, V domains shown)
VH: EVQLQQSGAELVRPGALVKLSCKASGFNIKDYYMHWVKQRPEQGLEWIGWIDPENGNTIYDPKFQGKASITADTSSNTAYLQLSSLTSEDTAVYYCTRGGGYYSDWYFDVWGAGTTVTVSS
VL: QIVLTQSPAIMSASPGEKVTMTCSASSSVSYMHWYQQKSGTSPKRWIYDTSKLASGVPARFSGSGSGTSYSLTISSMEAEDAATYYCQQWSSNPPITFGAGTKLELK
modifications: Variable domain of the heavy chain (VH); Light Chain Variable Domain (VL)
notes: anti-G-protein alpha antibody; generated by Cisbio Bioassays
[3]
  HTRF signal with anti-Twin-Strep-tag-Lumi4 Tb: positive HTRF signal
[4]
  HTRF signal with anti-Twin-Strep-tag-Lumi4 Tb: positive HTRF signal
[5]
  HTRF signal with anti-Twin-Strep-tag-Lumi4 Tb: did not give an HTRF signal
[6]
  HTRF signal with anti-Twin-Strep-tag-Lumi4 Tb: did not give an HTRF signal
[7]
  HTRF signal with anti-Twin-Strep-tag-Lumi4 Tb: did not give an HTRF signal
[8]
  HTRF signal with anti-Twin-Strep-tag-Lumi4 Tb: positive HTRF signal
[9]
  HTRF signal with anti-Twin-Strep-tag-Lumi4 Tb: positive HTRF signal
[10]
  HTRF signal with anti-Twin-Strep-tag-Lumi4 Tb: positive HTRF signal
[11]
  HTRF signal with anti-Twin-Strep-tag-Lumi4 Tb: did not give an HTRF signal
[12]
  inhibition of the HTRF signal obtained with antibody DSV36S-d2: completely inhibited
[13]; condition buffer (absence of SNC162)
  FRET signal with GTPgN-octyl-C2-Europium cryptate: moderate but significant FRET signal
[13]; on adding SNC162 10 μM
  FRET signal with GTPgN-octyl-C2-Europium cryptate: increase of this FRET signal
[13]; unactivated membrane preparations, antibodies labeled with d2, FIG. 12
  FRET signal with Europium GTPgN-octyl-C2-cryptate: increase of the FRET signal
[14]; G-protein αi1 bound to a nucleotide (in particular GTPgS) versus empty
  signal and affinity depending on the state of G-protein αi1: higher signal and higher affinity
[14]; antibodies labeled with d2, in the presence and in the absence of nucleotide (GTPgS or GDP)
  capacity for binding the G-protein αi1 (HTRF signal): capable of binding the G-protein αi1
[15]
  inhibition of the HTRF signal obtained with antibody SC13533-d2: not capable of inhibiting
